From US20100303858A1

Experiments:
[1] = target: gp120/sCD4 complex (HIV-1 YU2) (UniProt P35961); experiment: SPR (BIACORE 2000), antibody immobilized on CM4 chip, gp120/sCD4 as analyte, 1:1 Langmuir fit
[2] = target: gp120/sCD4 complex (HIV-1 YU2) (UniProt P35961); experiment: SPR, antibody immobilized; KD of gp120/sCD4 against KD of gp120ΔV1/V2sdCD4 and gp120ΔV2sdCD4
[3] = target: gp120ΔV2sdCD4 chimeric protein (HIV-1 YU2) (UniProt P35961); experiment: SPR (BIACORE 2000), antibody immobilized on CM4 chip, chimeric protein as analyte, 1:1 Langmuir fit
[4] = target: gp120ΔV1/V2sdCD4 chimeric protein (HIV-1 YU2) (UniProt P35961); experiment: as above
[5] = target: wild type gp120YU2 (HIV-1 YU2) (UniProt P35961); experiment: ELISA, gp120 captured by D7324, bound antibody as OD 490 nm
[6] = target: gp120/sCD4 complex (HIV-1 YU2) (UniProt P35961); experiment: ELISA, gp120/sCD4 captured by D7324, bound antibody as OD 490 nm

| Substance | Kd [1] [nM] | koff [1] [s⁻¹] | kon [1] [M⁻¹ s⁻¹] | fold KD against the chimeric proteins [2] [fold] | Kd [3] [nM] | koff [3] [s⁻¹] | kon [3] [M⁻¹ s⁻¹] | Kd [4] [nM] | koff [4] [s⁻¹] | kon [4] [M⁻¹ s⁻¹] | EC50 (read off the curve) [5] [µg/mL] | EC50 (read off the curve) [6] [µg/mL] |
| --- | --- | --- | --- | --- | --- | --- | --- | --- | --- | --- | --- | --- |
| human CD4i monoclonal antibody 4.8D | 1.2 | 0.000212 | 177000 | 100 | 0.038 | 0.000197 | 5.2e+06 | 0.015 | 0.000149 | 9.45e+06 |  |  |
| human CD4i monoclonal antibody E51 | 0.21 | 0.000169 | 796000 |  | 0.013 | 0.000398 | 3.08e+07 | 0.012 | 0.000516 | 4.27e+07 |  |  |
| human MAb F105 (antibody) |  |  |  |  |  |  |  |  |  |  | 0.1 | 0.3 |
